Kd and kon data for 3 molecules are collected here from patent publication US20210171630A1 (MacroGenics, published 2021).

The term Kd denotes the equilibrium constant for the complex coming apart. The low end stands for tighter binding, the high end for weaker binding. In general, kon refers to a measure of how fast the partners come together. A lower kon goes with slower complex formation.

Common to all, as to experiment: SPR (ProteOn); CD16-His immobilized via anti-PentaHis, diabody passed over
Test [1] has as its target T1, Human CD16A V158F, His tagged (R&D Systems) (human, UniProt P08637 17-208).
T1 construct: Bought (R&D Systems); also called CD16-His tagged molecules; not shown: His tag
The procedure:
(§1) A ProteOn analysis was conducted to assess the binding of the CD16 Binding Domains of the constructed diabodies to CD16-His tagged molecules (R&D Systems) that had been immobilized on a chip. The CD16 molecules were immobilized via an anti-PentaHis antibody, followed by incubation incubation with the diabodies.

The target of test [2] is T2, Human CD16A 158V, His tagged (R&D Systems) (human, UniProt P08637 17-208).
T2 construct: Bought (R&D Systems); also called CD16-His tagged molecules; not shown: His tag
The procedure:
as §1

Test [3] has as its target T3, Human CD16B, His tagged (R&D Systems) (human, UniProt O75015 17-200).
T3 construct: Bought (R&D Systems); also called CD16-His tagged molecules; not shown: His tag
The procedure: as §1

T1 sequence (P08637 17-208 limits assumed, stated change not applied): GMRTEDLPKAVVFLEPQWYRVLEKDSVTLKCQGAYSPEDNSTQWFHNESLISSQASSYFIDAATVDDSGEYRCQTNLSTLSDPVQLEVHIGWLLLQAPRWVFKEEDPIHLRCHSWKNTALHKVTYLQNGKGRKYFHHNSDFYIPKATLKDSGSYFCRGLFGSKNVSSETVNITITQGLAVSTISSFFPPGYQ
T2 sequence (P08637 17-208 F176V limits assumed): as the sequence (P08637 17-208 limits assumed, stated change not applied) above, with F160V counted along it
T3 sequence (O75015 17-200 limits assumed): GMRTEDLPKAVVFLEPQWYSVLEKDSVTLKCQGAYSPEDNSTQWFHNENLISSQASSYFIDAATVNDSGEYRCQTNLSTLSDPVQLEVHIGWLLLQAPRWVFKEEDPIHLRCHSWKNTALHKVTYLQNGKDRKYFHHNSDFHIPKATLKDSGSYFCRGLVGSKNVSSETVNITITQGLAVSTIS

B1: DART-Z (bispecific antibody)
chain 1: QSALTQPPSASGSPGQSVTISCTGTSSDVGGYNYVSWYQHHPGKAPKLIISEVNNRPSGVPDRFSGSKSGNTASLTVSGLQAEDEAEYYCSSYTDIHNFVFGGGTKLTVLGGGSGGGGEEVQLVQSGAEVKKPGESLKVSCKASGYTFTSYYMHWVRQAPGQGLEWMGIINPSGGSTSYAQKFQGRVTMTRDTSTSTVYMELSSLRSEDTAVYYCARGSAYYYDFADYWGQGTLVTVSSASTKGEVAACEKEVAALEKEVAALEKEVAALEK
chain 2: QPVLTQPSSVSVAPGQTATISCGGHNIGSKNVHWYQQRPGQSPVLVIYQDNKRPSGIPERFSGSNSGNTATLTISGTQAMDEADYYCQVWDNYSVLFGGGTKLTVLGGGSGGGGQVQLQESGPGLVKPSQTLSLSCTVSGGSSSSGAHYWSWIRQYPGKGLEWIGYIHYSGNTYYNPSLKSRITISQHTSENQFSLKLNSVTVADTAVYYCARGTRLRTLRNAFDIWGQGTLVTVSSASTKGKVAACKEKVAALKEKVAALKEKVAALKE
notes: also called 4-LS21
B1: the figures for the dissociation constant (Kd) in test [1] and in test [2] were 15.2 nM and 15.7 nM, respectively.

B2: DART-H (bispecific antibody)
chain 1: DIVMTQSPDSLAVSPGERATIHCKSSQTLLYSSNNRHSIAWYQQRPGQPPKLLLYWASMRLSGVPDRFSGSGSGTDFTLTINNLQAEDVAIYYCHQYSSHPPTFGHGTRVEIKGGGSGGGGEVQLVESGGGLVKPGGSLRLSCAASGFTFSNYGMSWVRQAPGKGLEWVATISGGGSYTFYPDSVKGRFTISRDNAKNSLYLQMNSLRTEDTALYYCVRQSARAPEPYWGQGTLVTVSSASTKGEVAACEKEVAALEKEVAALEKEVAALEKGGGDKTHTCPPCPAPEAAGGPSVFLFPPKPKDTLMISRTPEVTCVVVDVSHEDPEVKFNWYVDGVEVHNAKTKPREEQYNSTYRVVSVLTVLHQDWLNGKEYKCKVSNKALPAPIEKTISKAKGQPREPQVYTLPPSREEMTKNQVSLWCLVKGFYPSDIAVEWESNGQPENNYKTTPPVLDSDGSFFLYSKLTVDKSRWQQGNVFSCSVMHEALHNHYTQKSLSLSPGK
chain 2: DIQMTQSPSFLSASVGDRVTITCRASQNVGTHVAWYQQKPGKAPKSLLYSASYRYSGVPSRFSGSGSGTDFTLTISSLQSEDIATYYCQQYKSYPLTFGQGTKLEIKGGGSGGGGQVQLVQSGGGVFKPGGSLRLSCEASGFTFTEYYMTWVRQAPGKGLEWLAYISKNGEYSKYSPSSNGRFTISRDNAKNSVFLQLDRLSADDTAVYYCARADGLTYFSELLQYIFDLWGQGARVTVSSASTKGKVAACKEKVAALKEKVAALKEKVAALKE
chain 3: not shown
notes: Three-chain diabody; hCD16-M1 x 7B2
B2: the dissociation constant Kd in test [1] amounted to 0.04 nM; in test [2], 0.1 nM; in test [3], 0.4 nM.

B3: DART-4 (bispecific antibody)
chain 1: DIVMTQSPDSLAVSPGERATIHCKSSQTLLYSSNNRHSIAWYQQRPGQPPKLLLYWASMRLSGVPDRFSGSGSGTDFTLTINNLQAEDVAIYYCHQYSSHPPTFGHGTRVEIKGGGSGGGGQVTLRESGPALVKPTQTLTLTCTFSGFSLSTSGMGVGWIRQPPGKALEWLAHIWWDDDKRYNPALKSRLTISKDTSKNQVVLTMTNMDPVDTATYYCAQINPAWFAYWGQGTLVTVSSASTKGEVAACEKEVAALEKEVAALEKEVAALEKGGGDKTHTCPPCPAPEAAGGPSVFLFPPKPKDTLMISRTPEVTCVVVDVSHEDPEVKFNWYVDGVEVHNAKTKPREEQYNSTYRVVSVLTVLHQDWLNGKEYKCKVSNKALPAPIEKTISKAKGQPREPQVYTLPPSREEMTKNQVSLWCLVKGFYPSDIAVEWESNGQPENNYKTTPPVLDSDGSFFLYSKLTVDKSRWQQGNVFSCSVMHEALHNHYTQKSLSLSPGK
chain 2: DIVMTQSPDSLAVSLGERATINCKASQSVDFDGDSFMNWYQQKPGQPPKLLIYTTSNLESGVPDRFSGSGSGTDFTLTISSLQAEDVAVYYCQQSNEDPYTFGQGTKLEIKGGGSGGGGQVQLVQSGGGVFKPGGSLRLSCEASGFTFTEYYMTWVRQAPGKGLEWLAYISKNGEYSKYSPSSNGRFTISRDNAKNSVFLQLDRLSADDTAVYYCARADGLTYFSELLQYIFDLWGQGARVTVSSASTKGKVAACKEKVAALKEKVAALKEKVAALKE
chain 3: not shown
Take B3: the equilibrium dissociation constant (Kd) in test [1] came out at 76.8 nM; in test [2], 23.3 nM; in test [3] it was 7.8 nM. Also, the kon in test [2] was 290000 M⁻¹ s⁻¹.
